Test results published in the domain aggregation screens of Martell et al. (2025).

Assay: soluble fraction after stress (log2 fold change); higher = more stays soluble; pooled small domains, quantitative proteomics
Conditions: stress: pH 4
Summary of the method: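 Custom libraries of small protein domains were pooled and exposed to pH 4. High-throughput quantitative proteomics then measured the log2 fold change in the amount of each domain still soluble, with higher values meaning more stayed soluble. This soluble-fraction fold change stands for aggregation propensity.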

Sequence | soluble fraction (log2)
HMLPELIVTTKKGVTVTVTNGVITYSATSNGKATFTVPNYGKWTVSATINGTVISKVVDVTEAKQIPVLLG | -0.318
HMLPERIQTIVALIGHGRAMDLVREFGGQEIKFPAQEGNDTWAALVEVIGEAATRKLAAVFGGGQAPPVYI | -0.593
HMLPGVPVVAGKTQSAATRILKAAGYAVSVVREEAFDGVTGTVLRTSPEAGSPLAPGSRVTLVVLQVV | -0.114
HMLPGWMETKFTANVSENTKNRTLEEHVLKMLNNKESAAEFIIFLHEKMMSVSGQVFQLDSR | -0.0998
HMLPIGSSREQVISSLNKMHQDYKEEGNFIYAGYFKQGLPLVPSPRISIALQFNETAHLEKIDATLNYV | -0.467
HMLPKLAEEYAIMEIRGKGENLTAKLINKGGDSFMVRNGTVLQTGHRIDEITQTYVRAEINGMKDYLYFA | -1.44
HMLPLLAFDEKLNRLGYGGGFYDRTLASLAHKGNTITAIGIAYESQKMDKVPTGYFDRPLDGVLTPSGLIM | -0.0764
HMLPNLWVMGPGDHLWRVAEVAMTKHLGRPVANHEIDGYWRRLVALNRESLIDPDNPDLVFAGQVIELPPF | -2.2
HMLPQGKGTAMWLADHLAAASVTLDAGARKLLEDTLGEDMSRLPGVLRVLEATFGSDAGRLSAEDIEPFL | -1.05
HMLPRNKRIEIALTYIYGLGRHAATVVLKHANISPDKRTDDLDENDVRKLRDAIDANFRVEGDLRR | -0.0555
HMLPTVSITGHIFIRSGSPLNRIFVGEKIYHVGDHIDRDWVIESIGIDTLTIRSGTLSTQLPL | 0.034
HMLPVFNYQVYRTHGLIYVYAKDNDSFDQIARSMGFKAKQLMKFNEVPEDFPLQAGDIVYLEKKKK | -0.368
HMLPVLEIGTMIRIIRQPHFGTIARVVALPEELTKVESETLVRILDAEFDDGTRVRIPRANVEVIE | -1.37
HMLPYGDRRRHTDNTISRIRELAAALDDSGIADRLNQDGYVTPEGKPFTYAGVRWIRYKYDISGPYERN | -0.364
HMLQKVELSDNEKFIFDSLQKEQKMALLRLKELVNLSNKAWDVSVKNLTKQGLVKVTKIDEELLIEI | -1.24
HMLQPQMKKFLNYESARNKMRPFGLSTRKEWRLFVDEGNRPADIPGDPYKKYKNKGWISWPHFLGK | 0.0515
HMLRDTTLLHIDSIVRDGSTAMANITVRDEGTDLEFPLQLRMERGDMGWQVVRIVNYRAYLEAVQKA | -0.59
HMLRGKNALMSQLDQIQGIGPKRKRALFNHFLTLDAIKQADVETLRQAPGMNLPAAEQVYRHFHM | 0.144
HMLRIIDYNRVVKDLNGLTPEQLLEKLAESFTVEDKGTEEYRPTELHNFSMYLGGHWYSLTAKPGTYDDND | -0.926
HMLRMTRNRQKLVEVLMESGRPLSADEIREAAGFASTDLVTVYRNLEAFQSAGLLQRIPLENGSQLFELT | -0.269
HMLRNDEAVMLGRRLLNKHLQAFSVQIKDISHQRIHDLLDELELESLDHLLDDIGLGNRSVFLVAQKLLQ | -1.25
HMLRQRVFRIIQNNINSKNYFVYTKQILAELAGISMRSLNRTLSELQNDRLIIVDSGTIRLFT | -0.824
HMLRVGASVTANGKYWYDSYGSKPFGTANNLSTTVTRIVPGNPYPIHIGSYGWLQESQIQIT | 0.204

Sequence | soluble fraction (log2)
HMLSDADLAAFREVFDLVDKDKSGAIEMEEVEELTKLLGLDLTRDEVELLVREIDKDGNGEVDFEEFLLVM | -0.115
HMLSDHGLNDRQIMVIAGLMNGGTVTVRSIESQYGVSLNTARADVKMLVDAGLLTETGREVNMKVYSWSGK | -0.22
HMLSDSDTLRDLYLSEQIWNVGDLIRVKGKNDDTHPSWEIIRRGTNYITAIDENYKSHKVWLHDIDI | -1.4
HMLSEKELLELLNRAKSNYNGITKKGIEAIALKYQGYSNVEIANLYHVKANHISAWISRARSRLKADY | -0.0621
HMLSNLYAVLGVGRRATPDEITAAFDAWNARADAGEPIDDPLWERVRYAWDVLSSPSRRDLYDSLVDDATG | -2.25
HMLSSREEKILNYLNEHQIITRKKAQELLETSQSTAGRVLKIMVDNGLIVQYGGSRSIWYELIK | -0.269
HMLSTGIIIGDNVALRKTASSNGGIITRLDEGTVVKILASNVNAEWYQVEAGTKTGYVNRLYVNID | -0.345
HMLSTGQLIRYYRKRAGMTQAELAEEVEMSEPGIRNYELGNRTPSKAQLSAIARGLGIEPEALI | -0.0764
HMLSVKEQTYQIIKEKILNQEYPAGARININELAEELGISNSPIREALSLLEQQGLVISNRSSGATVT | -0.772
HMLSVLKNVDVNSLSDDKIKTYWQQIQKSGYTLDEVEVLAEAQGISPLKIAAFKRRVQSLQQSLQT | -0.018
HMLSYDDTVVIGRNLLENAMKQKNIALEQLTDEVLARLAKELQVESVEAMYAGIGSGKRPSSFIINRLEAH | -0.454
HMLSYFKIIKNGLVREGPASYYKIAENLEIGTIVQAFEKHDDWYLIKTHSGRIGWIVASDVTPQV | 0.36
HMLTAHEAILKELRKMLLTGVLSPGEAVRPEIIGESFGVSAVPVREALRILEGEGQVLNRPHKGYVVT | -0.482
HMLTANPEEVVNRLTSAGEVGVRPLLDVDDPINAISTLLAIREDVYKQFAQFDTVGKSPSEIAHEIDDFL | -0.162
HMLTEERLQIITDTVNSRSSVTIAELSRILDVSPSTVKRDLNILAEAGKITKVRGGAIALGE | 0.164
HMLTGDVDRYKDFFIALEKTSPVPIGFEKIIGGAHGYYHLEDKRIAIDEGMSELQTLKTAIHEIAHAKLHD | -0.123
HMLTGNTAKLFAHLVEVMNPKEFVKINRQTVIVEAGIPRGSVGAAIAKLLETGHLIANASGAYKLT | 0.0211
HMLTIEEYLTQLKKLMKDRDAATVRDALSDAEEHLRNAMAGEDPSRLDGIIEEYGSPEEIAAAYKIMEEHT | -0.715
HMLTIQNYFNQVKNIDWEQVPAALSKGHQLVEGASQNNWSAYHSNANIQRVVEAYFQKLNDYLEKN | -0.168
HMLTKGDRQSIRDSIIYMVGNAPRTLDYIVAESRYSEEDVIEAVRSLLSSHILSIDDSDMISLTRK | -0.362
HMLTNNYKNDKALRFAKNHGIHESNILKLVSLYENAPEKGFNAQSIAELLGITPRSASRILVKLLQHNLIR | 0.381
HMLTPSRVLPYLFEDSFFIDTLSLEKDQVVGFLEYIDERLPPQDLMNKSKEFELIDYLINESEAYLSQ | -0.311
HMLTQEEITRRRGEILTAAMGVILRKGFLETSMREIAEAAGVGKSTLYDYFPSKDEIMIAYVVD | -0.869

Sequence | soluble fraction (log2)
HMLTRYNVNYYYNGEILQRRKVAEGSAAERITYLSGSLEVTDWYTEADLLRKYDFTEPVTGDLNLYAFARI | -0.556
HMLTSAQLAEIRQAVRAGQASVVEDLLKNGASPNFRMENGDTGFTYAVRADTPQVAEALLKSGKL | -0.00206
HMLTTIRKATVNDKTRIMEIYAYARQFMAEHGNPNQWKNNNPSEETIDNDIAKQEMYVIETDGEVHAVFY | -1.42
HMLVDWNYLEGKRGVTTTPLTPSGKARFGDDVVNVLSDGVLVSTGTPVRVLQVLGNRVLVEPLDG | 0.0163
HMLVGRDPQALILGSMPSEKSLEEDEYYAHPRNRFWSLMNWLLAGNKTRPAYKTGIEILSSHGIALWV | -0.578
HMLVIMKTGASEEEIGRVIERIEGEGLSAHVSRGTERTVIGVIGQGVDVHRIAGVLGGMSGVESLVPIS | 0.0269
HMLVLAENMDVIFTRRTLDDHVVVDYKTTIGEMVKNDEIKGENMDELISAVEKDGYELVSSTSGEIIFLND | -0.704
HMLVVEPSAELKTIIDKTASFVARNGPEFEARIKNEQNNAKFSFLQPNDPFNPYYRAKIVELGGTV | -0.174
HMLVYQRLDKDNFIFEGKTLLNDIYKILDIESNYFEAIRGEADSIAGLLLEIAKSIPTINTEF | -0.571
HMLYEDVQVPNVRYWKSRDAKKQLEDLGLRVLTEHVNDAYIQSDQVIRTSPEIGDTLRTGDTVTLYVSDG | 0.146
HMMKLSKRQEQIIAVVKEHQPVSGERISDILAVSRATLRSDLSFLTLSGILKASPKVGYTYES | ≥ 0.43
HMMLVKKMLNGIMMKEITIKELADQYDVSTRTIQLKIKKLGYEWDSKESIYRYVGKESEPLDVDFSTLI | -1.47
HMMQEIKLEVINNEELRIDNYINLAGIGLSRSYIQKLIKDGVILVNGKEVKSSYKVSLGDIISVQIPDPG | -0.209
HMMVIMRANATEPQIANVVAYVEKNGLNAHLSRGAERTVIGVVGDIRRVSKETFELMDGVDSVMRIS | -0.734
HMNADKEALIAAAYRNSLIENFGTENVERYEERFNKWADKHDRQGMPMYPTIEKWMNEDNIA | -0.209
HMNADRIVGQTAKVIHPITPDEKGRVMVDNLDWAAAAQNRGESFEVGEEVSIVRIEGVTVYVQK | -0.57
HMNADTVIGKAGTVIEKIDNVAATGAVKIDGKVWTARSERDNITIDEGTLVKAMAIEGVKLIVEPVT | 0.0947
HMNAEGLIGREAVALTAVDAHGGRVRLGGEEWSARLSKENGGVSRLSVGDPVRVTDIDGAIAVVAP | 0.0456
HMNAEQLAQVRRQKIGFIFQDFRLFPEYTVRDNILIPFYLDHRAPDEQMLHKLTGILGIAGKLHSRPAQL | -0.0979
HMNAKVVAPIPGTVLSIDIKVGDVIKIGDRLLVLEAMKMENNIASEKSGTVTAVHVKVGQQVLQNELMIEL | -1.2
HMNALNDLESKIFEEVVKAPEIIMNMTIREFASTVHASPTTIVRMTHKLGFSGWNELKTYLQKQKHQIS | -0.0849
HMNALREVNTSILNVRSGAGTNYSKIGSLTQATRVSVISESNGWSKINYNGKVGYVSSQYLS | ≥ 0.43
HMNAMKPVLTVSLGVHTDSLSRRLNEEGIIYRWQQAASEQLLLVDSESSSERIAELIHDWRLEQSSS | -0.051
